Target: T1, wild-type human moesin (Moesin-WT) (human, UniProt P26038 2-577, pulled down with the anti-p-ERM antibody, i.e. the form with phosphorylated C-terminal threonine (Thr558 for moesin, as the filing names the site in paragraph 193))
T1 construct: also called pCDNA3-Moesin WT; wild type moesin
Assay: anti-p-ERM IP and Western blot, transfected H522 cells
Source text: Both plasmids produce high levels of moesin proteins in the transfected cells (FIG. 5d).
Because p-ERM functions primarily through binding to F-actin and EBP50 (ERM-binding phosphoprotein 50) through their C-ERMAD and TERM domain (Fouassier, L., Yun, C. C., Fitz, J. G.& Doctor, R. B. Evidence for ezrin-radixin-moesin-binding phosphoprotein 50 (EBP50) self-association through PDZ-PDZ interactions. J Biol Chem. 275, 25039-25045 (2000); Turunen, O., Wahlström, T. & Vaheri, A. Ezrin has a COOH-terminal actin-binding site that is conserved in the ezrin protein family. J Cell Biol. 126, 1445-1453 (1994); Bretscher, A. et al. ERM-Merlin and EBP50 protein families in plasma membrane organization and function.

T1 sequence (P26038 2-577 limits assumed): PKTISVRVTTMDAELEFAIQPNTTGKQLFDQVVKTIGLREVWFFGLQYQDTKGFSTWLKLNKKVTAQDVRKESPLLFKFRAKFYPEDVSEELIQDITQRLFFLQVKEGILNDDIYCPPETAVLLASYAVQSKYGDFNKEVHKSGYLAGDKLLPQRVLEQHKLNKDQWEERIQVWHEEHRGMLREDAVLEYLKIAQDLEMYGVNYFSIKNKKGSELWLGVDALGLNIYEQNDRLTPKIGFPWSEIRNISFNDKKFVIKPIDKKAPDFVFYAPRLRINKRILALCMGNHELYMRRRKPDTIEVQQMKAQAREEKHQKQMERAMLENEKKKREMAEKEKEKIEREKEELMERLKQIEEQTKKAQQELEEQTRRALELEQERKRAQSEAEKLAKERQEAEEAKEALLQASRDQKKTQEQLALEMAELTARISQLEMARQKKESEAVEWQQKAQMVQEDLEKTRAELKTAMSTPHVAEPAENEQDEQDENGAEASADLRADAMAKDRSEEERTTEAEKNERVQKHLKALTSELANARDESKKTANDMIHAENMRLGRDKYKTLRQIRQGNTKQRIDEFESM

binding result: binds
B1: ERM-binding phosphoprotein 50 (EBP50) (other, UniProt O14745 2-358, looked up)
chain: SADAAAGAPLPRLCCLEKGPNGYGFHLHGEKGKLGQYIRLVEPGSPAEKAGLLAGDRLVEVNGENVEKETHQQVVSRIRAALNAVRLLVVDPETDEQLQKLGVQVREELLRAQEAPGQAEPPAAAEVQGAGNENEPREADKSHPEQRELRPRLCTMKKGPSGYGFNLHSDKSKPGQFIRSVDPDSPAEASGLRAQDRIVEVNGVCMEGKQHGDVVSAIRAGGDETKLLVVDRETDEFFKKCRVIPSQEHLNGPLPVPFTNGEIQKENSREALAEAALESPRPALVRSASSDTSEELNSQDSPPKQDSTAPSSTSSSDPILDFNISLAMAKERAHQKRSSKRAPQMDWSKKNELFSNL
notes: Endogenous protein detected by Western blot (anti-EBP50, Clone 6/EBP50) in anti-p-ERM IP products
